Read-outs that look alike come from different tables or passages of the source.
Columns and labels:
[1] = dog, in vivo
Experimental: The other monoclonal antibody, specific for an N-terminal epitope, was biotinylated. […] Illumination of the complex releases singlet oxygen atoms from the donor beads which channels into the acceptor beads and trigger chemiluminescence which was measured in the EnVision plate reader.
The LC-MS system consisted of Waters Acquity UPLC system (Waters) consisting of an autosampler (Model Acq-SM), pump (Model Acq-BSM), column oven (Model Acq-SM), detector (Model Acq-TUV) and LTQ Orbitrap XL (Thermo Fisher). RP-HPLC separation was achieved using a linear gradient of acetonitrile in 0.1% formic acid using CSH C18 column (Waters, 1×150 mm) with a flow rate of 0.1 ml/min at 45° C.
A pharmacokinetic study was carried out to determine plasma half-life of the GLP-1 peptides after p.o. administration to Beagle dogs.
Dogs were administered p.o. GLP-1 peptide 1 in a SNAC formulation. Blood samples were drawn at predefined time points after dosing, and samples were analysed for concentration of the GLP-1 peptide. […] The variability in plasma concentration of the GLP-1 peptide was determined as % CV for AUC. […]
Blood samples were drawn at predefined time points after dosing, and samples were analysed for concentration of the GLP-1 peptide. […] The variability in plasma concentration of the GLP-1 peptide was determined as % CV for AUC. […]

[2] = Pharmacokinetic study: variability in plasma concentration (% CV) after p.o. administration of SNAC tablet to humans; type: in vivo; settings: for % CV AUC / % CV Cmax: p.o. tablet with 300 mg SNAC
Experimental: The variability in plasma concentration was determined as % CV for both Cmax and AUC.

[3] = 10 mg, single dose, healthy subjects
[4] = 10 mg/day for 70 days, healthy subjects, Day 70
[5] = 20 mg/day for 70 days, healthy subjects, Day 69
[6] = 40 mg/day for 70 days, healthy subjects, Day 69
[7] = 40 mg/day for 70 days, subjects with type 2 diabetes, Day 69

N-epsilon26-[2-(2-{2-[2-(2-{2-[(S)-4-Carboxy-4-(17-carboxyheptadecanoyl-amino)butyrylamino]ethoxy}ethoxy)acetylamino]ethoxy}ethoxy)acetyl][Aib8,Arg34]GLP-1-(7-37) [GLP-1 peptide 1]
variability in plasma exposure, daily dosing compared to single dose [1]: significantly reduced
% CV AUC ([1]; po, 300 mg): 67%
variability in plasma exposure, daily dosing compared to single dose ([2]; humans, 10, 20 or 40 mg daily for 70 days vs single dose of 10 mg): significantly reduced
% CV AUC [2, 3]: 105%
% CV Cmax [2, 3]: 113%
% CV AUC [2, 4]: 73% (Day 70)
% CV Cmax [2, 4]: 74% (Day 70)
% CV AUC [2, 5]: 67% (Day 69)
% CV Cmax [2, 5]: 62% (Day 69)
% CV AUC [2, 6]: 78% (Day 69)
% CV Cmax [2, 6]: 80% (Day 69)
% CV AUC [2, 7]: 55% (Day 69)
% CV Cmax [2, 7]: 54% (Day 69)

From patent US10278923B2, “Oral dosing of GLP-1 compounds” (Novo Nordisk A/S, priority 2013, dated 2019)
